B1: Hda1 (enzyme)
chain: MDSVMVKKEVLENPDHDLKRKLEENKEEENSLSTTSKSKRQVIVPVCMPKIHYSPLKTGLCYDVRMRYHAKIFTSYFEYIDPHPEDPRRIYRIYKILAENGLINDPTLSGVDDLGDLMLKIPVRAATSEEILEVHTKEHLEFIESTEKMSREELLKETEKGDSVYFNNDSYASARLPCGGAIEACKAVVEGRVKNSLAVVRPPGHHAEPQAAGGFCLFSNVAVAAKNILKNYPESVRRIMILDWDIHHGNGTQKSFYQDDQVLYVSLHRFEMGKYYPGTIQGQYDQTGEGKGEGFNCNITWPVGGVGDAEYMWAFEQVVMPMGREFKPDLVIISSGFDAADGDTIGQCHVTPSCYGHMTHMLKSLARGNLCVVLEGGYNLDAIARSALSVAKVLIGEPPDELPDPLSDPKPEVIEMIDKVIRLQSKYWNCFRRRHANSGCNFNEPINDSIISKNFPLQKAIRQQQQHYLSDEFNFVTLPLVSMDLPDNTVLCTPNISESNTIIIVVHDTSDIWAKRNVISGTIDLSSSVIIDNSLDFIKWGLDRKYGIIDVNIPLTLFEPDNYSGMITSQEVLIYLWDNYIKYFPSVAKIAFIGIGDSYSGIVHLLGHRDTRAVTKTVINFLGDKQLKPLVPLVDETLSEWYFKNSLIFSNNSHQCWKENESRKPRKKFGRVLRCDTDGLNNIIEERFEEATDFILDSFEEWSDEE
B3: Hda2 (natural protein)
chain: MSRKNSKKLKVYYLPVTLTQFQKDLSEILISLHAKSFKASIIGEPQADAVNKPSGLPAGPETHPYPTLSQRQLTYIFDSNIRAIANHPSLLVDHYMPRQLLRMEPTESSIAGSHKFQVLNQLINSICFRDREGSPNEVIKCAIIAHSIKELDLLEGLILGKKFRTKRLSGTSLYNEKHKFPNLPTVDSTINKDGTPNSVSSTSSNSNSTSYTGYSKDDYDYSVKRNLKKRKINTDDWLFLATTKHLKHDQYLLANYDIDMIISFDPMLEVELPALQVLRNNANKDIPIIKLLVQNSPDHYLLDSEIKNSSVKSSHLSNNGHVDDSQEYEEIKSSLLYFLQARNAPVNNCEIDYIKLVKCCLEGKDCNNILPVLDLITLDEASKDSSDSGFWQPQLTKLQYSSTELPLWDGPLDIKTYQTELMHRAVIRLRDIQDEYAKGTVPLYEKRLNETQRQNQLDEIKNSVGLTFKKKQEVEKSINDSEKRLKHAMTESTKLQNKINHLLKNRQELENFNKLPSNTISSENHLEEGSALADKLKEYIDKNATLFNKLKELQQANAEKSKLNDELRSKYQIESSKAAESAQTLKILQESMKSLENEVNGPLTKFSTESLKKELERLQNDFQSLKARNKFLKNYITLMNRQYDLKNKNNVQVEKAAANGTRFRSTRSNTPNYT

How the values were obtained:
[1] = target: HDAC protomer complex (Hda1_(2)-Hda2-Hda3 heterotetrameric complex) (S. cerevisiae) (UniProt P53973); experiment: cryo-EM structure
SEC-MALS = target: the molecule itself; experiment: SEC-MALS
Hda2 = target: B3; experiment: cryo-EM structure
Hda1 [2] = target: B1; experiment: cryo-EM structure
Hda1 [3] = target: B1; experiment: SEC-MALS

HDAC protomer complex (Hda1_(2)-Hda2-Hda3 heterotetrameric complex) (from UniProt P53973;Q06629;Q06623)
stoichiometry N [1]: 2

B1
stoichiometry N (SEC-MALS): 2

B2: Hda3 (natural protein)
chain: MDLLRILDTKPIPTIVDATTLGISGNTSGDYWLPTTMSLYQKELTDQIVSLHYSDILRYFETSHYKEDVILESMKTMCLNGSLVATHPYLLIDHYMPKSLITRDVPAHLAENSGKFSVLRDLINLVQEYETETAIVCRPGRTMDLLEALLLGNKVHIKRYDGHSIKSKQKANDFSCTVHLFSSEGINFTKYPIKSKARFDMLICLDTTVDTSQKDIQYLLQYKRERKGLERYAPIVRLVAINSIDHCRLFFGKKFDKNSREYLENVTAAMVILRDRLGTLPPDLRPIYSQKLHYLVEWLENPTVPWPLPDIYPLKQYTSMDVERSLLTEVHFKKSDDQLEDAFSNCSKKRGRHGANKAASSTVAGIEDNITPSFYSTKRLKNDYYTNPLKQDMTQLTGITTADNSSNVNYHLSSGIITHKLIQSMGEVYMDICVQKQELDDYSCLDDLQNDHLKFFSNEDEKIIKEYETVLRTNNENLNRSHELEVENNLKFSQIETLEKDIETLKGSLMAQGETLSKLKDAFVKTDNVQDEIEKEERVSVSRDTEKKYMEQEIKRAVDAIRENEEETHKLNEKQNGLESELKLKFEKSEISTKELNEKIGFLKKELKLENDLNEELVGQLSKTMDNLENLTIPRVRTQNGNTKKKSRAKKPGNV
binding result (Hda2): binds
binding result (Hda1 [2]): binds

B3
binding result (Hda1 [3]): binds

Source: paper PMC7793584 (Science Advances, 2021)
